Results reported in the DeepSol protein solubility set.

experiment: soluble on expression in E. coli; label from the status in PepcDB or PDB records

Sequence	soluble on expression in E. coli
MKKKADFLELFAVEKPIIGVIHLKGKTDQEIQERAKKEIQIYSEHGVDAILMENYYGDYVQLEKALQYVTSLDLPIPIGVNVLNVDPLGFHLANKYHLQFLQIDSVVGHVKPRDEASLQAFFDLYRAKTTAKLIGGVRFKYQPMLSEKSVEEDLKIAQQRCDAIAVTENATGEETSLEKIKLFRKQLPEFPLIVAAGLNDKSVKEQLAICDAAIVGSNFKDTRKDTGDIYAPYVDSFMKIVKELRGELEHHHHHH	soluble
MRYIMASPINSGIMMANLCPSTFLDKNRNVAAELDIKNNEKKYSPGSNFAKWMLQEIKRLILNIMSGSRSINTDILDYFHPMPGTENNGNRTWVAATGEDEYIEIKQTGDKSFNITLVGRDKPSRKEIPYSGVAVATIIKSLSEKTSALETHSADTVLRKKLVNSIVMKNTDFNYEIPAGILSNIYDLLKLRIKKDEGYVPVQESFKRTDVFFDSMIMDAH	not soluble
MGSDKIHHHHHHMHKVMISRIKGTQDIAFEDIDYWHFAEEIIRNISHKYAFTEIRTPIFEATELFKRSVGESTDVVQKEMYTFEDKGGRSITLRPEGTASVARAFIENSFINLGSPVKLFYSGPMFRYEKPQAGRLRQFHQFGAEILGSESPLADFEIIEMAYSFLKELKINNAKLFINSIGCPACREDYKTALKEYYSDKLAGMCPDCQRRYETNVLRLLDCKIDKGLVQGAPGILDYLDSDCRSHFEELQWYLERAGIDYEVDQFLVRGLDYYTRTAFEIRSSSLGSQDQLVGGGRYDGLVEYIGGKSCPAVGFAIGLERIVMLLKSENVRINGPETSEVAILTFGREESVRGFDYAKRLRKMGVSTFVDVMERNMRNKMKHASRIGAKISLLIGKEEIERDIVTIKVMNDGSQFQVDSDYMADYVVDKLRDIS	not soluble
MENFIDTLENWRDQKQIISVICKDGIKIDDSIITSFKASKDVGISNGLRIQLTFQEINFKAIVGQTDVSAATGRTSTTNDGGATSKKNTGNTTTSLGSPMLTCKELFSYSASELSDEALKARVTCSKSVSVKNGESTFTA	not soluble
MKNKLLYKLRSGKNPKFIYYSVNALRLIIPKGIFRLRLQGKLSSLSRRKDKEYIEHRVDYYNKLSGTVQLPSSAPHLSEHKMSKQKVYFFDTYQYTRWFSDQFQWGFCPGDVTFVPDYPSIVKSRPLTDDNVNSIVMKLDKVRHFIFVDDKKAFTEKKNMVIFRGKVKGKPSRKLFMEMYFHHPMCDLGDVSKNTTDPAEWRTEKKTINEHLDYKFIMALEGIDVASNLKWVMSSNSIAVMPRPTCETWFMEGTLIPNYHYIEIKPDFSDLEERLNYYIEHVDESLEIINHAHEYVSQFKDKRRENLISLLVLDKYFKMTGQKSLEHHHHHH	soluble
MLAVSGLARSTFFDHQRRLDKPDKYADLKEQITTIFHDSNATFGYRRIWRALRNNNTIVNKKVVQRLMREQGLVSKIRRKKYNSYRGTVSHIADNVLGRRFIQDAPNKVWVSDVTEFRVAGTKVYLSPVMDLFDRTILAHTLSTSPNTQLTSRSLADAIAMFSPGKGLIVHTDQGFQYQHASWRTLIKSVGGVQSMSRKGNCYDNAVMENFFGHLKSEMYYGASFTSVDELCQAIDEYILWYNTYRLQERFKGLAPMQYRNQTLAKTLTV	not soluble
KGNEFEDYCLKRELLMGIFEMGWEKPSPIQEESIPIALSGRDILARAKNGTGKSGAYLIPLLERLDLKKDNIQAMVIVPTRELALQVSQICIQVSKHMGGAKVMATTGGTNLRDDIMRLDDTVHVVIATPGRILDLIKKGVAKVDHVQMIVLDEADKLLSQDFVQIMEDIILTLPKNRQILLYSATFPLSVQKFMNSHLEKPYEIN	soluble
MAHHHHHHMGTTASTDSADSPFSVRSVDSSGGGGWRQEDPERFRKYMHLKSQADQWRQRHGHTPGATRGELTKNLIEEVYEEDFESVDHVQSMRLPPMVLKEMKDAVANEAERRCAETEKVMARCLQDKMWTSWKCQKERDALYQCVADRKEDNELLMAYRWKYNLGTFHGELIGRNNMMRRIWKEHFPDRDLPHPWVKDA	not soluble
SPSKVQELSVYEINELDRHSPKILKNAFSLMFGLGDLVPFTNKLYTGDLKKRVGITAGLCVVIEHVPEKKGERFEATYSFYFGDYGHLSVQGPYLTYEDSFLAITGGAGIFEGAYGQVKLQQLVYPTKLFYTFYLKGLANDLPLELTGTPVPPSKDIEPAPEAKALEPSGVISNYTN	not soluble
MGSDKIHHHHHHMAFTSDSLAIFLAVLDAGSFSAAARKLGRVPSAVSMAIAQLEAELDLPLFDRATRKALPTNAALALEPQARQVICQLNLLDAQALQLHKGLEKRLTIAMAPELQTGRWSQPLEILAQAFPSLEVEVRSATQTEAIRLLHDGSVQLALVFERPGIDERESFLEAGSQLLVAVASPRHPAGQNSGSPLPEEAFAEQRQIIVASGKATGSDPRMVLSRRIWLTDSYLATLDLVQSGLGWAYLPQPLVEPLIASGALAEVRFDNMANRLRLWVDIIWIKSRPLGLGARRYLEVMRQLFEKEPPRA	not soluble
MKLALTLEADSVNVQALNMGRIVVDVDGVNLSELINKVSENGYSLRVVDKSDQHATSTPPPLTTLTCIRCSTAHITETDNAWLYSLSHQTNDDGETEWIHFTGSGYLLRTDAWSYPVLRLKRLGLSRTFRRLVVTLTRRYGVSLIHLDAGAECLPGFPTFDW	not soluble
MGSDKIHHHHHHMSKGTIRVLQLYPRDMNIYGDWGNALVLQQRLRWHGYTPELLEYNVGDEFPAGVDLIVGGGGQDSGQLVIQDDLLSRESTLKELAEAGTPMLLICGMYQLFGKFFKTRTGSVIPGIGVLDVETHGTDERLIGNVTVSSPEFGDVLGYENHSGQTTLGPGVRPLGSTPKGIGNNSKDGQEGARYRNIVASYLHGSLLPKNPAIADFLIRTAVERKYGSFTPGAPDDRYAVMAREHAARRPR	not soluble
GPGSMSKQKNVEINYDEVDETTGFKAAEMFVWLKFEESYLQKPEDEREADVDAWADTFCEEMEGEGMNYDRNFVRSVCTLGIYAGLRDEFQQRTGSGKAIYANGDRYDGEFFEGKKHGRGRYIFVSLGKSECDRIVEKELQKLGDVVAGENFVKAVADRYKIGCHIISYIIEYGFHPCYHGDYVRGKRVGRGLMKNKDGTVYKGEFLENKREGRGMFFYLNGDIYSGNWKNGRKHGYGTYHFVGGNEYRGMWNDGVFTHGQWIFPDGVYYEGHFNKKNRPCDEAASMHYPALKMAQTGTFKRGTWAPTSALEVCEETPVDGMTWTD	soluble
AIATANLAATDDWGELLDVLDPGDPTGSRVIARYDRLRVHREGLLHRSVHVCVVRSVPDWPAQVHGLRNTNYKLLLQRRSESKAIAPGCWDLSCAEHLRAGESFEGAAVRGLQEELGLALAPDQQTTPIHALDDGEPALQLYDYPSVGLTDYEWNRIYVVFVTDQADEALAKLKLDSAEVAQVRWITRESLQMELAENPSHFTPWFRDQARKHLLPSAYN	soluble
LSKGTRDRKNIYVSPEEMARQQRFIDEIKELNYRKEVKTGKKKLYCLNTFGCQMNEHDSEKLAGMLAEMGYAETDNVNESDLVIYNTCCVRENAELKVYGHLGMLKPLKNQKPDLVIAVCGCMMQQPEVVEHIKKTYSHVDLIFGTHNLYKFPELLYSAMDSQTTVVDVWDCDGQIAENVAIERKDGVKAWVTVMYGCNNFCTYCIVPYVRGRERSRSMDDILEEVRMLGRQGFKEITLLGQNVNSYGKDIGDGTSFAELIREVNKIPGIERIRFTTSHPKDLSDDLIYAMRDCEKVCEHLHLPFQAGSTRILKLMNRKYTKEDYINLVAKIKENIPDIALTTDIIVGFPGETEEDFSDTLDILEKVRFDNAYTFLYSKRTGTPAAKMEDQVPEEVKKERFQRLLETQNRISKEINDTFLGKVVEVLVEGVSKTNDKIFTGRTRGNKVVNFEADASLIGKLVNVRINTVKTWSLEGSIVR	soluble
MRLPCEVVFARYKANAGVNPKPTKSQKGFVILQKLRQTPPQYQITVAVAGDKTGNKFELNKPPIILDKFIAQGKTTITFQTTPAVMVCISKANPEALAQLIEAIRKIVKGENVDIEKVKVKSSDFKPTTITVNNQATYKKQMQSCSEFLKTLKIEPIDLRRPDKAWRFCHNLTRLTLNGNPIGAHNRDLDVFSKLKQLQSLEMRSCSLELIPVPAMCTMFRELPTSISLLDFGDNHLSIFPPIFHLKQLKIINAAHNAIKYLPSRIGVLQNLNTIDVSNNLMTALPYVFSKIPSIEHVGINANDQMVRLEEEIGPIFIRRLLTKVDNIEYTHEGGVDKLGTIAANAIHREECSKSMKFGRQFLPLSLRFDMDDLMFEKPGISSLELCTGCVRLRHIRYIRPLIIQSRQIANSVDVIGRFVTFDRLLCIDCYRRTTSTNNGEPPFQCDYFQFAV	not soluble
ENYLNVKKIENEKNLQISEMSLQYDYYMKQSNDMENIRKISHDIKNHLEALRGNVDYQQKQEYIDGIESKLDIYQSYYKTGNAFLNNLLHAKRLEALEKKIEFKVFADFTPFKRVKNEDLCVIVSNTIDNALRECQLMKADNPKIECLVQLKARKIKGFLSIICENSLRESQAEALRGNLVMETSKEDKKNHGFGVKNIKRVVREYGGEVSFNVVDDMFSVSILIPIEV	not soluble
MSLGDEGWQTVIGLEIHAQIKTGKKLFSKASTSYGHVPNTNVDVHDAAFPGTLPVLDINAIRLSIMTALALNCQINPRSTFDRKHYFYHDIPASYQITQHYNPLAWNGHLEIREGDNGSKRTFNIGIKQLQVEQDTAKSQTVGDAVLVDLNRAGTGLMEIVTDPDMRSPEEAGAFVKKLQGLLRRVGSADGDMEKGNLRVDVNVSVHRPGMPFGTRCEIKNINSVRFLQAAIESERQRHIAHYCTSPLEPLAQETRGFNELTLQTYSLRSKEEATDYRYMPDHNLPAIIIDDGYLDSLWKNLPEMPWQSVERLVKTYGVTKRDAETLLGLDEYSAQGIAYFEEVVEQDKKIAKKATNWIAHELLGQLGKAIRPWTPTIVPAPLMHELVTAVESREITGTTGKAIVKHFVSLPESASLPPSFAELLAELGLTPSAASVEDLTETCKKAMNNQPKAVADFKKGNEKVVMRLVGEVMKLSGGKADAMKAKDILLDLLKDEGHHHHHH	not soluble
MLLLPSAADGRGTAITHALTSASTLCQVEPVGRWFEAFVKRRNRNASASFQELEDKKELSEESEDEELQLEEFPMLKTLDPKDWKNQDHYAVLGLGHVRYKATQRQIKAAHKAMVLKHHPDKRKAAGEPIKEGDNDYFTCITKAYEMLSDPVKRRAFNSVDPTFDNSVPSKSEAKDNFFEVFTPVFERNSRWSNKKNVPKLGDMNSSFEDVDIFYSFWYNFDSWREFSYLDEEEKEKAECRDERRWIEKQNRATRAQRKKEEMNRIRTLVDNAYSCDPRIKKFKEEEKAKKEAEKKAKAEAKRKEQEAKEKQRQAELEAARLAKEKEEEEVRQQALLAKKEKDIQKKAIKKERQKLRNSCKTWNHFSDNEAERVKMMEEVEKLCDRLELASLQCLNETLTSCTKEVGKAALEKQIEEINEQIRKEKEEAEARMRQASKNTEKSTGGGGNGSKNWSEDDLQLLIKAVNLFPAGTNSRWEVIANYMNIHSSSGVKRTAKDVIGKAKSLQKLDPHQKDDINKKAFDKFKKEHGVVPQADNATPSERFEGPYTDFTPWTTEEQKLLEQALKTYPVNTPERWEKIAEAVPGRTKKDCMKRYKELVEMVKAKKAAQEQVLNASRAKK	not soluble
